These results are taken from paper PMC11360484 (Toxins, 2024).

The assay concerns the target T1, recombinant ecarin (rEcarin), SVMP PIII prothrombin activator from Echis pyramidum leakeyi (Echis pyramidum leakeyi (Kenya; entry …).
T1 construct: also called His10-tagged recombinant ecarin
Put plainly: BLI; Octet HTX; […]; 30 C; PBS with 0.1% TWEEN 20 and 0.1% BSA; 180 s association, 180 s dissociation; 1:1 model, […]. As to conditions: both partners purified.

T1 sequence (heavy, as listed by the source): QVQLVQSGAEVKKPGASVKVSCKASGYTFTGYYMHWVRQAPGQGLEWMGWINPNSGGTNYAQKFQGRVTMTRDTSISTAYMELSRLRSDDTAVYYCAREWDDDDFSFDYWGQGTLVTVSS

B1: H11 IgG1 (synthetic human antibody against rEcarin) (antibody, V domains shown)
VH: not shown
VL: QSALTQPASVSGSPGQSITISCTGTSSDVGGYNYVSWYQQHPGKAPKLMIYEVSNRPSGVSNRFSGSKSGNTASLTISGLQAEDEADYYCSSYTSSSTLVVFGGGTKLTVL
notes: copies: 2 + 2
B1: the Kd worked out at 87 ± 8 nM.
